Results as given in patent US20250108114A1.

Experiments:
Test in all cases: cell-based or functional assay
[1] = molecular target: BCMA on H929 myeloma cells (human) (UniProt Q02223)
[2] = molecular target: truncated BCMA (amino acid 1 to 98) on SKOV3 cells (human) (UniProt Q02223)
[3] = molecular target: CD19 on GFP/Luc+ Raji cells (human) (UniProt P15391)
[4] = molecular target: truncated CD19 (amino acid 1 to 342) on SKOV3 cells (human) (UniProt P15391)
truncated CD19 (amino acid 1 to 342) on SKOV3 cells (human), sequence (P15391 20-342 limits assumed, form in doubt): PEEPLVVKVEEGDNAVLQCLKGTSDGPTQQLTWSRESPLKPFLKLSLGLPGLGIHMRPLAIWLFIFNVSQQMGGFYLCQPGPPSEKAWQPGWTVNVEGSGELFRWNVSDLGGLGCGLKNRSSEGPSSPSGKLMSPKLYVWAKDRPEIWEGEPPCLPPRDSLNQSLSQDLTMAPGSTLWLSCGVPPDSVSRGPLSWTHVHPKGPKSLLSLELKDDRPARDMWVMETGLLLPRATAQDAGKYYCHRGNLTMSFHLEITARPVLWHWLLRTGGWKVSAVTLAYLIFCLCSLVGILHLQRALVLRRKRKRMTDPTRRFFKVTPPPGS

BCMA on H929 myeloma cells (human), sequence (Q02223 whole entry, the tested form may be a part): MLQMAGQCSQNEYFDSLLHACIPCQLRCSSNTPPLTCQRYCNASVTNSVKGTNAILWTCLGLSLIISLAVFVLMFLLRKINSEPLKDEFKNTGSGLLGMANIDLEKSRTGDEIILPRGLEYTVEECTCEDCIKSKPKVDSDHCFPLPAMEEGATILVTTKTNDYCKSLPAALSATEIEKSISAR
CD19 on GFP/Luc+ Raji cells (human), sequence (P15391 20-556): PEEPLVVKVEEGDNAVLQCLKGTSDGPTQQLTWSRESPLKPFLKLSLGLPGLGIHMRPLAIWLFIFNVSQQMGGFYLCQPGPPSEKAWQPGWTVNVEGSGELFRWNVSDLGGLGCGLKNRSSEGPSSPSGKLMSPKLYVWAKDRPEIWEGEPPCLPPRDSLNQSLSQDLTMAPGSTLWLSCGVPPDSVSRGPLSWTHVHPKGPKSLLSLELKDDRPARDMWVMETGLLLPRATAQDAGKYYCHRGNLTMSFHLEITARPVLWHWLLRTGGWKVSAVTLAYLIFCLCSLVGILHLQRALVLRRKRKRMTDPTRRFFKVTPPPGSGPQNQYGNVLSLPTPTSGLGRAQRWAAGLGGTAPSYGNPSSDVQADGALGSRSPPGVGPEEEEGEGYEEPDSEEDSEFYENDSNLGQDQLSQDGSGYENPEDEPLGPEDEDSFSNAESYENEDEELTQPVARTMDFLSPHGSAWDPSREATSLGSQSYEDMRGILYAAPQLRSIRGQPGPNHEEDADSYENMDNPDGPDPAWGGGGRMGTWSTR
truncated BCMA (amino acid 1 to 98) on SKOV3 cells (human), sequence (Q02223 1-98 limits assumed): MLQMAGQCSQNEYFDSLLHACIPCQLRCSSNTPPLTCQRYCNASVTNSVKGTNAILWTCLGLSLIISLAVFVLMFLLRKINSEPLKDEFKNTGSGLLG

Substance	cytotoxicity, flow cytometry with counting beads, E:T 0.1:1, 24 hours [1]	cytotoxicity, real-time cytotoxicity assay (xCELLigence), E:T 0.3:1 and 0.1:1, after 36 hours of co-culture [2]	cytotoxicity, flow cytometry with counting beads, E:T 0.3:1 and 1:1, 24 hours [1]	Specific cell lysis ratio (at E:T = 3:1), luciferase killing assay [3]	cytotoxicity, real-time cytotoxicity assay (xCELLigence), E:T 0.1:1 (fold against Comparative Example 1C) [4]
anti-BCMA chimeric antigen receptor of Comparative Example 3 (J6M0 scFv, hinge domain of CD8, transmembrane domain of CD8, 4-1BB, signal transduction domain of CD3ζ), on CAR-T cells of Comparative Example 3C (from UniProt P01732 183-206; Q07011 214-255; P20963 52-164)	74.8%				
anti-BCMA-NKp30 chimeric antigen receptor of Example 3 (J6M0 scFv, hinge domain of CD28, NKp30 without immunoglobulin-like domain), on CAR-T cells of Example 3C (from UniProt O14931 129-201; P30273 19-86)	73.5%	100%	80 to 85%		
anti-CD19-NKp30 chimeric antigen receptor of Example 1-4 (FMC63 scFv, hinge domain of IgG4, NKp30 without immunoglobulin-like domain), on CAR-T cells of Example 1-4C (from UniProt O14931 129-201; P30273 19-86)				51%	
anti-CD19-NKp30 chimeric antigen receptor of Example 1-5 (FMC63 scFv, (EAAAK)3 hinge, NKp30 without immunoglobulin-like domain), on CAR-T cells of Example 1-5C (from UniProt O14931 129-201; P30273 19-86)				83.6%	> 3
